Reference: patent US20120253017A1 (published 2012)
Read-outs that look alike come from different tables or passages of the source. One block for each binder: values may come before it.

What was measured:
[1] = target: Myosin Light Chain (on streptavidin chip; vMLC1-sulfotag); experiment: BIAcore, bad fit
[2] = target: T1, human c-kit (recombinant, on BIAcore chip or beads) (human, UniProt P10721 26-524); experiment: BIAcore, c-kit on SA chip
T1 construct: extracellular domain; also called hcKIT; biotinylated human c-kit
Protocol: All unique dAb clones were expressed in 50 ml cultures (OnEX plus carbenicillin) overnight at 37° C. and purified on protein A (VH dAbs) or protein L (VK dAbs). Purified dAbs were passed over a SA BIAcore chip coated with either human or mouse c-kit at 1 μM to identify those dAbs that bound specifically to either human or murine c-kit.

[3] = target: T1, human c-kit (recombinant, on BIAcore …); experiment: BIAcore, dAb at 1000 and 500 nM
Protocol: Unique dAbs were expressed as bacterial supernatants in 2.5 L shake flasks in Onex media at 37° C. for 24 hrs at 250 rpm. dAbs were purified from the culture media by absorption to protein A or L agarose followed by elution with 10 mM glycine pH2.0.

[4] = target: T2, mouse ventricular myosin light chain 1, GlySer(His)6 tag (mouse, UniProt P09542 1-204); experiment: BIAcore, vMLC-1 immobilised
T2 construct: also called mouse vMLC-1

[5] = target: T3, human ventricular myosin light chain 1, GlySer(His)6 tag (human, UniProt P08590 1-195, limits assumed); experiment: BIAcore, vMLC-1 immobilised
T3 construct: also called human vMLC-1; vMLC1-6xHIS

[6] = target: T2, mouse ventricular myosin light chain 1, …; experiment: BIAcore, vMLC-1 immobilised; remark: listed apart in the source
Protocol: (§1) Affinity of all 8 humanised mAbs was determined by BIAcore as described above.

[7] = target: T3, human ventricular myosin light chain 1, …; experiment: BIAcore, vMLC-1 immobilised; remark: listed apart in the source
Protocol: as §1

Myosin Light Chain (on streptavidin chip; vMLC1-sulfotag), sequence (chain, as listed by the source): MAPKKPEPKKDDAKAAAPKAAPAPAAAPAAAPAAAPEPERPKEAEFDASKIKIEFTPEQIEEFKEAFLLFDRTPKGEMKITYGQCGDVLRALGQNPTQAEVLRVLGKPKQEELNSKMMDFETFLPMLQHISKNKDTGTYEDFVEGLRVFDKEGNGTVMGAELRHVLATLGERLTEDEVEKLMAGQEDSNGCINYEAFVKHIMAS
T1 sequence (P10721 26-524): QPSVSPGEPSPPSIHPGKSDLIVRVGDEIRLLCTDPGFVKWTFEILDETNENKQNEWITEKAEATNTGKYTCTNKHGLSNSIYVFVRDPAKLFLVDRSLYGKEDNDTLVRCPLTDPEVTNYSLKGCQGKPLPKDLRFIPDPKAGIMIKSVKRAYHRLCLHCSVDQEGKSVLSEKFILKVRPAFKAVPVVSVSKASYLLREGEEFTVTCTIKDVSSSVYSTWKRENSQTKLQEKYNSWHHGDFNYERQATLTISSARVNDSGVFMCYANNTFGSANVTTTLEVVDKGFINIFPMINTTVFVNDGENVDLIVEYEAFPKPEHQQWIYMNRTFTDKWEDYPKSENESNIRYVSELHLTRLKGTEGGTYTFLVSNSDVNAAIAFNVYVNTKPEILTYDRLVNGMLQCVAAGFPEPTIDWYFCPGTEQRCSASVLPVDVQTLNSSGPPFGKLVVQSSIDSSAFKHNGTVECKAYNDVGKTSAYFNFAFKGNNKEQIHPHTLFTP
T3 sequence (P08590 other isoform, or with tags, fused parts or gaps limits assumed): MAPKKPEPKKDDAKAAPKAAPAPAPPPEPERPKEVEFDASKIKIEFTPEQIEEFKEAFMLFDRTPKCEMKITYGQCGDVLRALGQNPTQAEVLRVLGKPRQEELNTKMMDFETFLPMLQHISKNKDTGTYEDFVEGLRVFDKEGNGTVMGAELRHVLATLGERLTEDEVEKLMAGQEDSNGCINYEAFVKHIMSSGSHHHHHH
T2 sequence (P09542 other isoform, or with tags, fused parts or gaps): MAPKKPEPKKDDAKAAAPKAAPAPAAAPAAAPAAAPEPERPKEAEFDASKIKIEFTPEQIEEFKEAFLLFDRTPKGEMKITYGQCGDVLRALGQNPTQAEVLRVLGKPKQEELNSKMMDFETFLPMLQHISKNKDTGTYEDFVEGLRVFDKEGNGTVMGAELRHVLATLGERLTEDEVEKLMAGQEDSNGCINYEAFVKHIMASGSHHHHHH

B1: DMS5056 (chimeric MLC mAb-cKIT dAb, DOM28m-107) (bispecific antibody)
heavy: not shown
light: DIVMSQSPSSLAVSAGDKVTMSCKSSQSLLYSRTRKNYLAWYQQKPGQSPKLLIYWASTRQSGVPDRFTGSGSGTDFTLTISSVQAEDLAVYYCKQSYNLFTFGSGTKLEIKRTVAAPSVFIFPPSDEQLKSGTASVVCLLNNFYPREAKVQWKVDNALQSGNSQESVTEQDSKDSTYSLSSTLTLSKADYEKHKVYACEVTHQGLSSPVTKSFNRGEC
- Kd [1]: 0.048 nM

B2: DMS5058 (chimeric MLC mAb-cKIT dAb, DOM28m-112) (bispecific antibody)
heavy: not shown
light: DIVMSQSPSSLAVSAGDKVTMSCKSSQSLLYSRTRKNYLAWYQQKPGQSPKLLIYWASTRQSGVPDRFTGSGSGTDFTLTISSVQAEDLAVYYCKQSYNLFTFGSGTKLEIKRTVAAPSVFIFPPSDEQLKSGTASVVCLLNNFYPREAKVQWKVDNALQSGNSQESVTEQDSKDSTYSLSSTLTLSKADYEKHKVYACEVTHQGLSSPVTKSFNRGEC
- Kd [1]: 0.042 nM

B3: DOM28h-20 (other)
chain: DIQMTQSPSSLSASVGDRVTITCRASRSISDELTWYQQKPGKAPKLLISWGSSLQSGVPSRFSGSGSGTDFTLTISSLQPEDFATYYCLQTWELPVTFGQGTKVEIKR
notes: dAb, C-terminal FLAG tag (pDOM10)
- Kd [2]: 1000 nM

B4: DOM28h-78 (other)
chain: EVQLLESGGGLVQPGGSLRLSCAASGFTFEHYPMGWVRQAPGKGLEWVSHISYDGTDTYYADSVKGRFTISRDNSKNTLYLQMNSLRAEDTAVYYCAKFHNQWDIYSFDYWGQGTLVTVSS
notes: as for B3
- Kd [2]: 233 nM

B5: DOM28h-66 (other)
chain: EVQLLESGGGLVQPGGSLRLSCAASGFTFPLYEMHWVRQAPGKGLEWVSRISPTGATTYYADSVKGRFTISRDNSKNTLYLQMNSLRAEDTAVYYCAKDRRGRAGVTFDYWGQGTLVTVSS
notes: dAb, C-terminal FLAG tag (pDOM10); also called DOM28h-066
- Kd [2]: 2900 nM
- Kd [3]: 2900 nM

B6: DOM28h-54 (other)
chain: EVQLLESGGGLVQPGGSLRLSCAASGFTFESYDMSWVRQAPGKGLEWVSGIYPDGGATYYADSVKGRFTISRDNSKNTLYLQMNSLRAEDTAVYYCAKGEPNLFDYWGQGTLVTVSS
notes: as for B3
- Kd [2]: 490 nM

B8: DMS5052 (chimeric MLC mAb-cKIT dAb, DOM28m-007) (bispecific antibody)
heavy (part 1 of 2): QVQLQQSGAELASPGASVKLSCKASGYTFTTYWIHWVKQRPGQGLEWIGAIYPGDGDTRYTQNFKDKATLTADSSSSTAYMQLSSLASEDSAVFYCAREGTPPFTTATFAMAYWGQGTSVTVSS
heavy (part 2 of 2): STGEVQLLESGGGLVQPGGSLRLSCAASGFTFSNYAMGWVRQAPGKGLEWVSSISSSGFATYYADSVKGRFTISRDNSKNTLYLQMNSLRAEDTAVYYCAKSESRTFKAFDYWGQGTLVTVSS
light: DIVMSQSPSSLAVSAGDKVTMSCKSSQSLLYSRTRKNYLAWYQQKPGQSPKLLIYWASTRQSGVPDRFTGSGSGTDFTLTISSVQAEDLAVYYCKQSYNLFTFGSGTKLEIKR
notes: not shown: human IgG1 CH1-CH2-CH3
- Kd [1]: 0.047 nM

B13: humanised 39-15 mAb 4-1:1-3 (antibody, human IgG1, kappa, V domains shown)
VH: QVQLVQSGAEVKKPGASVKVSCKASGYTFTTYWIHWVRQAPGQRLEWMGAIYPGDGDTRYTQNFKDRVTITRDTSASTAYMELSSLRSEDMAVYYCAREGTPPFTTATFAMAYWGQGTLVTVSS
VL: DIVMTQSPDSLAVSLGERATINCKSSQSLLYSRTRKNYLAWYQQKPGQPPKLLIYWASTRQSGVPDRFSGSGSGTDFTLTISSLQAEDVAVYYCKQSYNLFTFGQGTKLEIKR
notes: human IgG1 kappa
- Kd [6]: 0.0396 nM
- koff [6]: 6.6e-05 s⁻¹
- kon [6]: 1.67e+06 M⁻¹ s⁻¹
- Kd [7]: 0.00825 nM
- koff [7]: 1.52e-05 s⁻¹
- kon [7]: 1.84e+06 M⁻¹ s⁻¹

B16: DOM28h-73 (other)
chain: EVQLLESGGGLVQPGGSLRLSCAASGFTFDDYWMQWVRQAPGKGLEWVSSISDEGARTYYADSVKGRFTISRDNSKNTLYLQMNSLRAEDTAVYYCAEYPGLAHFGEDFDYWGQGTLVTVSS
notes: as for B3
- Kd [2]: 1300 nM

B18: DOM28h-7 (other)
chain: DIQMTQSPSSLSASVGDRVTITCRASSNIDDDLGWYQQKPGKAPKLLIGWSSDLQSGVPSRFSGSGSGTDFTLTISSLQPEDFATYYCAQWWRGPATFGQGTKVEIKR
notes: as for B3
- Kd [2]: 1400 nM

B19: DOM28h-26 (other)
chain: DIQMTQSPSSLSASVGDRVTITCRASRNIDDELAWYQQKPGKAPKLLIAWGSDLQSGVPSRFSGSGSGTDFTLTISSLQPEDFATYYCGQFRRGPLTFGQGTKVEIKR
notes: as for B3
- Kd [2]: 621 nM

Second part, the binder after the results:

- Kd [4]: 0.0235 nM
- koff [4]: 3.07e-05 s⁻¹
- kon [4]: 1.31e+06 M⁻¹ s⁻¹
- Kd [5]: 0.0003 nM
- koff [5]: 1.1e-06 s⁻¹
- kon [5]: 3.5e+06 M⁻¹ s⁻¹
B7: anti-MLC mAb 39-15 purified from the hybridoma (ATCC HB11709) (antibody, mouse IgG1, V domains shown)
VH: QVQLQQSGAELASPGASVKLSCKASGYTFTTYWIHWVKQRPGQGLEWIGAIYPGDGDTRYTQNFKDKATLTADSSSSTAYMQLSSLASEDSAVFYCAREGTPPFTTATFAMAYWGQGTSVTVSS
VL: DIVMSQSPSSLAVSAGDKVTMSCKSSQSLLYSRTRKNYLAWYQQKPGQSPKLLIYWASTRQSGVPDRFTGSGSGTDFTLTISSVQAEDLAVYYCKQSYNLFTFGSGTKLEIKR
notes: mouse IgG1 kappa; also called anti-MLC (Hybridoma)

- Kd [4]: 0.0222 nM
- koff [4]: 3.46e-05 s⁻¹
- kon [4]: 1.56e+06 M⁻¹ s⁻¹
- Kd [5]: 0.0047 nM
- koff [5]: 1.78e-05 s⁻¹
- kon [5]: 3.81e+06 M⁻¹ s⁻¹
B9: recombinant anti-MLC mAb (39-15) (antibody, mouse IgG1, V domains shown)
VH: QVQLQQSGAELASPGASVKLSCKASGYTFTTYWIHWVKQRPGQGLEWIGAIYPGDGDTRYTQNFKDKATLTADSSSSTAYMQLSSLASEDSAVFYCAREGTPPFTTATFAMAYWGQGTSVTVSS
VL: DIVMSQSPSSLAVSAGDKVTMSCKSSQSLLYSRTRKNYLAWYQQKPGQSPKLLIYWASTRQSGVPDRFTGSGSGTDFTLTISSVQAEDLAVYYCKQSYNLFTFGSGTKLEIKR
notes: mouse IgG1 heavy and mouse kappa constant regions, expressed in HEK293E

- koff [6]: 8.8e-05 s⁻¹
- koff [7]: 2.17e-05 s⁻¹
B10: humanised 39-15 mAb 1-39:1-3 (antibody, V domains shown)
VH: QVQLVQSGAEVKKPGASVKVSCKASGYTFTTYWIHWVRQAPGQRLEWMGAIYPGDGDTRYTQNFKDRVTITRDTSASTAYMELSSLRSEDMAVYYCAREGTPPFTTATFAMAYWGQGTLVTVSS
VL: DIQMTQSPSSLSASVGDRVTITCKSSQSLLYSRTRKNYLAWYQQKPGKAPKLLIYWASTRQSGVPSRFSGSGSGTDFTLTISSLQPEDFATYYCKQSYNLFTFGQGTKLEIKR

- koff [6]: 0.000122 s⁻¹
- koff [7]: 3.41e-05 s⁻¹
B11: humanised 39-15 mAb 1-39:1-46 (antibody, V domains shown)
VH: QVQLVQSGAEVKKPGASVKVSCKASGYTFTTYWIHWVRQAPGQGLEWMGAIYPGDGDTRYTQNFKDRVTMTRDTSTSTVYMELSSLRSEDTAVYYCAREGTPPFTTATFAMAYWGQGTLVTVSS
VL: DIQMTQSPSSLSASVGDRVTITCKSSQSLLYSRTRKNYLAWYQQKPGKAPKLLIYWASTRQSGVPSRFSGSGSGTDFTLTISSLQPEDFATYYCKQSYNLFTFGQGTKLEIKR

- Kd [6]: 0.0589 nM
- koff [6]: 7.78e-05 s⁻¹
- kon [6]: 1.32e+06 M⁻¹ s⁻¹
- Kd [7]: 0.0128 nM
- koff [7]: 1.87e-05 s⁻¹
- kon [7]: 1.46e+06 M⁻¹ s⁻¹
B12: humanised 39-15 mAb 4-1:1-8 (antibody, V domains shown)
VH: QVQLVQSGAEVKKPGASVKVSCKASGYTFTTYWIHWVRQATGQGLEWMGAIYPGDGDTRYTQNFKDRVTMTRNTSISTAYMELSSLRSEDTAVYYCAREGTPPFTTATFAMAYWGQGTLVTVSS
VL: DIVMTQSPDSLAVSLGERATINCKSSQSLLYSRTRKNYLAWYQQKPGQPPKLLIYWASTRQSGVPDRFSGSGSGTDFTLTISSLQAEDVAVYYCKQSYNLFTFGQGTKLEIKR

- Kd [6]: 0.0426 nM
- koff [6]: 7.65e-05 s⁻¹
- kon [6]: 1.79e+06 M⁻¹ s⁻¹
- Kd [7]: 0.00818 nM
- koff [7]: 1.63e-05 s⁻¹
- kon [7]: 1.99e+06 M⁻¹ s⁻¹
B14: humanised 39-15 mAb 4-1:1-46 (antibody, human IgG1, V domains shown)
VH: QVQLVQSGAEVKKPGASVKVSCKASGYTFTTYWIHWVRQAPGQGLEWMGAIYPGDGDTRYTQNFKDRVTMTRDTSTSTVYMELSSLRSEDTAVYYCAREGTPPFTTATFAMAYWGQGTLVTVSS
VL: DIVMTQSPDSLAVSLGERATINCKSSQSLLYSRTRKNYLAWYQQKPGQPPKLLIYWASTRQSGVPDRFSGSGSGTDFTLTISSLQAEDVAVYYCKQSYNLFTFGQGTKLEIKR
notes: human IgG1 kappa

- Kd [2]: 3300 nM
- Kd [3]: 3300 nM
B15: DOM28h-110 (other)
chain: EVQLLESGGGLVQPGGSLRLSCAASGFTFRKYAMMWVRQAPGKGLEWVSTITASGGGTYYADSVKGRFTISRDNSKNTLYLQMNSLRAEDTAVYYCAKPLNQYATQFDYWGQGTLVTVSS
notes: as for B3

- Kd [6]: 0.0153 nM
- koff [6]: 2.16e-05 s⁻¹
- kon [6]: 1.42e+06 M⁻¹ s⁻¹
- Kd [7]: 0.00169 nM
- koff [7]: 2.65e-06 s⁻¹
- kon [7]: 1.57e+06 M⁻¹ s⁻¹
B17: humanised 39-15 mAb 4-1:5-51 (antibody, human IgG1, kappa, V domains shown)
VH: EVQLVQSGAEVKKPGESLKISCKGSGYSFTTYWIHWVRQMPGKGLEWMGAIYPGDGDTRYTQNFKDQVTISADKSISTAYLQWSSLKASDTAMYYCAREGTPPFTTATFAMAYWGQGTLVTVSS
VL: DIVMTQSPDSLAVSLGERATINCKSSQSLLYSRTRKNYLAWYQQKPGQPPKLLIYWASTRQSGVPDRFSGSGSGTDFTLTISSLQAEDVAVYYCKQSYNLFTFGQGTKLEIKR
notes: human IgG1 kappa

- Kd [2]: 218 nM
B20: DOM28h-79 (other)
chain: EVQLLESGGGLVQPGGSLRLSCAASGFTFKNYDMSWVRQAPGKGLEWVSGIWDDGWATYYADSVKGRFTISRDNSKNTLYLQMNSLRAEDTAVYYCAKGAATPGQTIFDYWGQGTLVTVSS
notes: as for B3
